A word on the Kd: it is the concentration at which binding is half-saturated.

A value given as a limit tells only on which side of the number the result lay.

The first assay concerns the target HLA-A*68:01. Kind of assay: IEDB peptide-MHC binding, purified MHC/competitive/radioactivity; filed as Kd, often an IC50 or EC50 that approximates it; ≥ and ≤ were set here for values at or beyond the usual limits of such assays. The conditions noted are these: source organism: Lymphocytic choriomeningitis virus (strain WE).
For the sequence SAYLISIFLH, the Kd was ≥ 30900 nM.

Still in this assay, the particulars now being: source organism: Mammarenavirus brazilense.
As to SCMVNHSTYY, the Kd is 15900 nM.

Staying with this assay, now noted: source organism: Mammarenavirus whitewaterense.
Take KCFANNQDER: the dissociation constant Kd came out at 6890 nM.
On to KWMLISSELK, for which the Kd stood at 891 nM.

Staying with this assay, now noted: source organism: SARS coronavirus Tor2.
LQFTSLEIPR: the Kd was found to be 402 nM.
Regarding LSAGVEFLK, the Kd turned out to be 0.244 nM.
On the same count and under the same terms, the same measure for MSAPPAEYK: 2.36 nM; for PVVAAIITR: 269 nM; for QSQMLLIVLK: 207 nM.
RQLFKPLTKK: the Kd stood at 2130 nM.

Still in this assay, the particulars now being: source organism: Vaccinia virus WR.
As for HSNLTETFR, the Kd stood at 0.414 nM.
In the case of IIKHIYEQY, the Kd turned out to be 2180 nM.
For the sequence IIVAGFSGK, the Kd is 1440 nM.
On the same count and under the same terms, the same measure for IMLPESDLDK: 1670 nM; for ISIYSRPKIK: 1730 nM; for ITTLLNETAK: 11.4 nM.
For the sequence KAFKNNLSR, the Kd was 171 nM.
Take KFLELKRGIY: the Kd was 10900 nM.
For KLCKNHAEK, the Kd amounted to 986 nM.
Still for that read-out and setting: the same measure for KLFKKTDFK: 6280 nM; for KMSTDNAVY: 11600 nM; for KSLLLLNTR: 16900 nM.
For LFDFVNEKY, the Kd is ≥ 26100 nM.
Turning to LFKNVRLLK, the Kd was 2090 nM.
As for LIPVSEVLLK, the Kd is 1210 nM.
Take LIVTFRERY: the Kd was 408 nM.
LLKYAGLTIK: the Kd turned out to be 3150 nM.
As to LMTLDDLAIK, the Kd was 2490 nM.
With MLPESDLDK, the Kd was determined as 1240 nM.
Regarding NAVYQCRKLR, the dissociation constant (Kd) was 332 nM.
With NFSIIELPY, the dissociation constant Kd was 3440 nM.
Take NIERQDYRR: the Kd was 119 nM.
Same read-out and setting: the same measure for NIRLTDTEYR: 1.39 nM; for NQNLIPSTVK: 406 nM.
Still for that read-out and setting: the same measure for NSSIISLFY: 125 nM; for NTILLSDKGK: 1.45 nM.
Regarding NTVVRDFENY, the Kd amounted to 235 nM.
In the case of PLHKYCVNLY, the Kd turned out to be 6570 nM.
As to PMPYMISTY, the Kd came out at 1340 nM.
Consider PSLEYGANY, for which the Kd was ≥ 60600 nM.
For the sequence PVDTEFINK, the Kd worked out at 3570 nM.
As to QALNSVANR, the Kd was determined as 55.7 nM.
On to QSYRQYRNY, for which the Kd is 17100 nM.
On the same count and under the same terms, the same measure for RQQLEDIFMR: 2560 nM; for SIKIKQDVR: 316 nM.
On to SILDRIDTR, for which the Kd stood at 189 nM.

The target in a further assay is HLA-A*31:01. The description is as above. The conditions noted are these: source organism: Lymphocytic choriomeningitis virus (strain WE).
Turning to SAYLISIFLH, the Kd amounted to 250 nM.

The same assay, now with this note: source organism: Mammarenavirus brazilense.
SCMVNHSTYY: the Kd was determined as 7410 nM.

The same assay, now with this note: source organism: Mammarenavirus whitewaterense.
KCFANNQDER: the Kd worked out at 6690 nM.
With KWMLISSELK, the Kd was 127 nM.

The same assay, now with this note: source organism: SARS coronavirus Tor2.
With LQFTSLEIPR, the Kd was 30.5 nM.
LSAGVEFLK: the Kd amounted to 776 nM.
On to MSAPPAEYK, for which the Kd is 37.8 nM.
Take PVVAAIITR: the Kd stood at 1240 nM.
QSQMLLIVLK: the Kd was 1410 nM.
Regarding RQLFKPLTKK, the Kd is 383 nM.

Still in this assay, the particulars now being: source organism: Vaccinia virus WR.
Consider HSNLTETFR, for which the Kd worked out at 0.596 nM.
On the same count and under the same terms, the same measure for IIKHIYEQY: 2660 nM; for IIVAGFSGK: 689 nM; for IMLPESDLDK: 489 nM.
Turning to ISIYSRPKIK, the Kd was found to be 5070 nM.
As for ITTLLNETAK, the Kd stood at 10700 nM.
As for KAFKNNLSR, the Kd stood at 25.4 nM.
On to KFLELKRGIY, for which the Kd was 22.6 nM.
Turning to KLCKNHAEK, the Kd is 543 nM.
KLFKKTDFK: the Kd came out at 8.08 nM.
Consider KMSTDNAVY, for which the Kd came out at 9730 nM.
On to KSLLLLNTR, for which the Kd worked out at 0.627 nM.
As to LFDFVNEKY, the Kd was ≥ 30000 nM.
Regarding LFKNVRLLK, the Kd was found to be 185 nM.
As to LIPVSEVLLK, the Kd is ≥ 70000 nM.
Consider LIVTFRERY, for which the Kd came to 836 nM.
On the same count and under the same terms, the same measure for LLKYAGLTIK: 1610 nM; for LMTLDDLAIK: ≥ 40700 nM; for MLPESDLDK: ≥ 36200 nM.
NAVYQCRKLR: the equilibrium dissociation constant (Kd) is 348 nM.
With NFSIIELPY, the Kd was determined as 6320 nM.
As to NIERQDYRR, the Kd is 1500 nM.
With NIRLTDTEYR, the Kd worked out at 59 nM.
Take NQNLIPSTVK: the Kd is ≥ 24800 nM.
With NSSIISLFY, the Kd came out at 5260 nM.
On to NTILLSDKGK, for which the Kd is ≥ 20300 nM.
The same measure, in the same setting: the same measure for NTVVRDFENY: ≥ 70000 nM.
Consider PLHKYCVNLY, for which the Kd was ≥ 23200 nM.
For PMPYMISTY, the Kd was ≥ 34900 nM.
With PSLEYGANY, the Kd was ≥ 10000 nM.
Take PVDTEFINK: the Kd is 12700 nM.
Consider QALNSVANR, for which the dissociation constant (Kd) was determined as 12 nM.
Same read-out and setting: the same measure for QSYRQYRNY: 2270 nM; for RQQLEDIFMR: 7000 nM.
SIKIKQDVR: the Kd was determined as 313 nM.
Turning to SILDRIDTR, the Kd was found to be 71 nM.

For another assay, the target named is HLA-A*33:01. The description is as above. The note with it: source organism: Lymphocytic choriomeningitis virus (strain WE).
Turning to SAYLISIFLH, the Kd is 874 nM.

Staying with this assay, now noted: source organism: Mammarenavirus brazilense.
With SCMVNHSTYY, the Kd turned out to be 8990 nM.

The assay is the same for the next values; noted with them: source organism: Mammarenavirus whitewaterense.
As to KCFANNQDER, the equilibrium dissociation constant (Kd) is ≥ 70000 nM.
KWMLISSELK: the Kd was 10500 nM.

The assay is the same for the next values; noted with them: source organism: SARS coronavirus Tor2.
Take LQFTSLEIPR: the Kd turned out to be 1210 nM.
On to LSAGVEFLK, for which the Kd is 8180 nM.
As to MSAPPAEYK, the equilibrium dissociation constant (Kd) stood at 1860 nM.
As to PVVAAIITR, the Kd is 7790 nM.
In the case of QSQMLLIVLK, the Kd was determined as 11700 nM.
With RQLFKPLTKK, the Kd was determined as 3670 nM.

Staying with this assay, now noted: source organism: Vaccinia virus WR.
Turning to HSNLTETFR, the Kd was determined as 4.95 nM.
The same measure, in the same setting: the same measure for IIKHIYEQY: ≥ 41600 nM; for IIVAGFSGK: 805 nM; for IMLPESDLDK: ≥ 70000 nM.
ISIYSRPKIK: the Kd was 8830 nM.
As to ITTLLNETAK, the Kd is ≥ 20800 nM.
As to KAFKNNLSR, the Kd amounted to 4140 nM.
The same measure, in the same setting: the same measure for KFLELKRGIY: ≥ 70000 nM.
For the sequence KLCKNHAEK, the Kd was ≥ 38700 nM.
On the same count and under the same terms, the same measure for KLFKKTDFK: 13900 nM; for KMSTDNAVY: ≥ 77700 nM.
On to KSLLLLNTR, for which the Kd is 1160 nM.
LFDFVNEKY: the Kd was ≥ 77700 nM.

Source of the values: the Immune Epitope Database (IEDB).
